Test results reported in PMC3653351 (The Journal of Cell Biology, 2013).
Blank lines part the entries; values can stand above or below the molecule they belong to.

Assays:
[1] = biological target: Myc-PK-SV40NLS (not stated | SV40); experiment: SEC
GST-SV40NLS (SV40) = experiment: ELISA
Myc-PK-TprNLS = experiment: SEC
[2] = biological target: Recombinant KPNA2/Importin-β (UniProt P52292;Q14974); experiment: ELISA
Chain of Recombinant KPNA2/Importin-β (UniProt P52292;Q14974) (Q14974 whole entry, one chain of several): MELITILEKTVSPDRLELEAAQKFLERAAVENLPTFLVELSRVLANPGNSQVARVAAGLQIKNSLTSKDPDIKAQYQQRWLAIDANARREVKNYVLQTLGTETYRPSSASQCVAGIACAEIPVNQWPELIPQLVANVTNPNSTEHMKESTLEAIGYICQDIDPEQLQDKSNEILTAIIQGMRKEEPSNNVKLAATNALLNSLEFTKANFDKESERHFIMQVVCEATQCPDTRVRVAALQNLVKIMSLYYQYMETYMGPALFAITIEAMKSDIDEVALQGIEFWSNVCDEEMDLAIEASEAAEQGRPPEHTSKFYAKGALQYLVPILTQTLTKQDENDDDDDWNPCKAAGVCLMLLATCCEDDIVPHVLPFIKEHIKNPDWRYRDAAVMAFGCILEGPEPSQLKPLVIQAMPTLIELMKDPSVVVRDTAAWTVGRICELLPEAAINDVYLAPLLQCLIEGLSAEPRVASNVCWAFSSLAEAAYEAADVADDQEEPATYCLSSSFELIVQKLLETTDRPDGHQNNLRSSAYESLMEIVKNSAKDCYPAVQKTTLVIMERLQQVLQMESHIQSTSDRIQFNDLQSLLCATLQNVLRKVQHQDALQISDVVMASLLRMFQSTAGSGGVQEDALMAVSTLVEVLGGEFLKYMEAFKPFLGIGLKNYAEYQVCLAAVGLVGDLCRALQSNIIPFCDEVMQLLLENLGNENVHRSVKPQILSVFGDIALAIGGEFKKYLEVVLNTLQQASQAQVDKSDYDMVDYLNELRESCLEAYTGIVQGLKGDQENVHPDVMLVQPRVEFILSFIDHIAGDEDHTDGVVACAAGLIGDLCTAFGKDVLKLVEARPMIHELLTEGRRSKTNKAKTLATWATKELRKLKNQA

stoichiometry N (Myc-PK-TprNLS): 4
Molecule: Myc-PK-TprNLS

Kd [2]: 3.2 nM
B1: GST-TprNLS (domain or fragment)
chain: STAVFGTVSATPSSSLPKRTREEEEDSTIEASDQVSDDTVEMPLPKKLKSVTPVGT

Further lines, the molecule ahead of its results:

Molecule: Myc-PK-SV40NLS
stoichiometry N [1]: 4

Molecule: Recombinant KPNA2/Importin-β (from UniProt P52292;Q14974) (complex)
Kd (GST-SV40NLS (SV40)): 10.5 nM
